# Entries after “also recorded” stand apart in the source; their conditions may differ. Where a SMILES comes first, the peptide text is derived from it. Where no end group is shown, it is not given here. [ ]: non-standard residue; d: D form. pY = N[C@@H](Cc1ccc(OP(=O)(O)O)cc1)C(=O)O
# B1: c-β3: β3 integrin derived peptide phosphorylated at C-terminal tyrosine (Y759) (peptide)
# peptide: ATSTFTNIT[pY]RGT
# notes: integrin β3 cytoplasmic tail, residues 750-762, Y759 phosphorylated; also called mono-phosphorylated peptide; source: synthetic peptide (NEO-Peptide)
# Assays:
# [1] = target: T1, full length Shc (1 – 473) (Homo sapiens, UniProt P29353); assay: ITC binding to full length Shc; details: full-length Shc titrated by bi-β3, Ins(1,4,5)P3 at 3 to 1
# T1 construct: The vector of pET28a-full length Shc (1 – 473), generously provided by Dr. Ladbury; His-tag (N); made in house; host or cells: E. coli BL21 (DE3), pET28a (vector a gift from Dr. Ladbury)
# T1 sequence (P29353 1-473 isoform P29353-2): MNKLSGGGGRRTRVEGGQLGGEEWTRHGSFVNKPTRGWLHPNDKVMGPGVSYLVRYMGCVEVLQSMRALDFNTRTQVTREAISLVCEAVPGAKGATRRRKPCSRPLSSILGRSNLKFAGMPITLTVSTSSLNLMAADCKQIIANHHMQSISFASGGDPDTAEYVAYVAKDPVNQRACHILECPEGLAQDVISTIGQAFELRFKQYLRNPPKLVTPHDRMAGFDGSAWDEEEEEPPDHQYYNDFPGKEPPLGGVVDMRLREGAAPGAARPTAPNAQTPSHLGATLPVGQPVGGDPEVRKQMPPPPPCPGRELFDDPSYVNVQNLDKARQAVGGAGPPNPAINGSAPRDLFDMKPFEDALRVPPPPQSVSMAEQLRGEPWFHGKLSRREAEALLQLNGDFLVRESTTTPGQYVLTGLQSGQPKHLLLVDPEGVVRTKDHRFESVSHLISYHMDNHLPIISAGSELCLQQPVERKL
# Description: The Shc PTB domain (17 – 207) containing the pET15b vector was transformed into a Rosetta (DE3) cell line to pursue optimal expression levels. SH2 domain (380 – 473) was cloned into NdeI and XhoI sites in pET21b vector and then transformed into a BL21 (DE3) cell line. The vector of pET28a-full length Shc (1 – 473), generously provided by Dr. Ladbury (University of Texas MD Anderson Cancer Center, TX), was expressed in a BL21 (DE3) cell line as well. Typically, 10 ml overnight culture was used to inoculate 1 liter LB broth. Cells were grown at 37°C until OD600 reached 0.6. At this point the culture was cooled to room temperature and then the overnight overexpression was induced by 1 mM isopropyl-β-D-thiogalactopyranoside. Harvested cells were kept at −20°C for future purification or resuspended in lysis buffer supplemented with protease inhibitors. Cells were further lysed by french press and the cell debris was removed by centrifugation at 18,000 rpm at 4°C. […] The overexpression of the target protein and the purified protein were confirmed by SDS-PAGE and the bands of the expected mass were observed. […]
# Calorimetric measurements of a full length Shc, PTB domain, and SH2 domain to β3 phosphopeptides or PtdIns were performed on a low volume Nano ITC (TA Instruments). […] The concentration of protein samples was determined by UV measurements. […]
# [2] = target: T2, Shc PTB domain (17 – 207) (Homo sapiens, UniProt P29353); assay: ITC binding to Shc PTB domain; details: PtdIns binding to PTB domain, ITC, 25°C
# T2 construct: The Shc PTB domain (17 – 207) containing the pET15b vector was transformed into a Rosetta (DE3) cell line; His-tag (N); made in house; host or cells: E. coli Rosetta (DE3), pET15b
# T2 sequence (P29353 17-207 isoform P29353-2): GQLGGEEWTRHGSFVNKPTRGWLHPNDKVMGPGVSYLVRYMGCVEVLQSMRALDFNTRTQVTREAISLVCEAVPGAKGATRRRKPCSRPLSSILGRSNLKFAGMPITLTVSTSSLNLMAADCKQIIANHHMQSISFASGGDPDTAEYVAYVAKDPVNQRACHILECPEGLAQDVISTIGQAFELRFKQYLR
# Description: The Shc PTB domain (17 – 207) containing the pET15b vector was transformed into a Rosetta (DE3) cell line to pursue optimal expression levels. SH2 domain (380 – 473) was cloned into NdeI and XhoI sites in pET21b vector and then transformed into a BL21 (DE3) cell line. The vector of pET28a-full length Shc (1 – 473), generously provided by Dr. Ladbury (University of Texas MD Anderson Cancer Center, TX), was expressed in a BL21 (DE3) cell line as well. Typically, 10 ml overnight culture was used to inoculate 1 liter LB broth. Cells were grown at 37°C until OD600 reached 0.6. At this point the culture was cooled to room temperature and then the overnight overexpression was induced by 1 mM isopropyl-β-D-thiogalactopyranoside. Harvested cells were kept at −20°C for future purification or resuspended in lysis buffer supplemented with protease inhibitors. Cells were further lysed by french press and the cell debris was removed by centrifugation at 18,000 rpm at 4°C. […] The overexpression of the target protein and the purified protein were confirmed by SDS-PAGE and the bands of the expected mass were observed. The determination of protein concentration by UV measurement was consistent with Bradford assay.
# Calorimetric measurements of a full length Shc, PTB domain, and SH2 domain to β3 phosphopeptides or PtdIns were performed on a low volume Nano ITC (TA Instruments). All experiments were carried out in a buffer of 50 mM Tris, pH 7.5, 100 mM NaCl, 5 mM β-mercaptoethanol (unless described otherwise) at 12°C or 25°C with a stirring speed of 250 rpm to minimize the precipitation of the protein. 300 second time intervals were set between injections. The concentration of protein samples was determined by UV measurements. The titrants (β3 phosphopeptides or PtdIns) were prepared in the same buffer by the dilution of higher concentration stocks. The concentrations of the protein ranged from 30 μM to 150 μM. The concentration of protein was examined after each ITC experiment by UV to ensure the stability of proteins under the test condition. The analysis of the data was done with Nano Analyze Software (TA Instruments) suite using an “independent” model.
# [3] = target: T3, Shc PTB domain (17 – 207) (UniProt P29353-2 17-207); assay: ITC; Nano ITC; β3 phosphopeptide titrated into the Shc protein over-saturated by Ins(1,4,5)P3 at 3 to 1 lipid to protein ratio; 12°C; details: both partners purified
# T3 construct: Shc adaptor protein (p52 isoform), PTB domain, residues 17-207, from a pET15b vector; numbers count on: the p52 isoform (full length 1-473); 15N-labelled (M9 medium with 15NH4Cl) for the NMR experiments; Monomeric on Superdex-75; also called apo PTB domain; source: E. coli Rosetta (DE3), purified (Ni-NTA, Superdex-75)
# T3 sequence (looked up): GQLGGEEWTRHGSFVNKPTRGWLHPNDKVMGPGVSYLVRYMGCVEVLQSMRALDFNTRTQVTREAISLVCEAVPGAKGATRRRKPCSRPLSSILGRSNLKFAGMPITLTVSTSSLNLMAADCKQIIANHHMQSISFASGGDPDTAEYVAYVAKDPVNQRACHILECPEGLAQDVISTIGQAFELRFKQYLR
# [4] = target: T4, full length Shc (1 – 473) (UniProt P29353-2 1-473); assay: as above; details: both partners purified
# T4 construct: Shc adaptor protein, full length 1-473 (printed length 473 residues, the p52 isoform), from a pET28a vector provided by Dr. Ladbury; numbers count on: the p52 isoform; Monomeric on Superdex-75; also called Shc full length; p52 Shc; source: E. coli BL21 (DE3), purified (Ni-NTA, Superdex-75)
# T4 sequence (looked up): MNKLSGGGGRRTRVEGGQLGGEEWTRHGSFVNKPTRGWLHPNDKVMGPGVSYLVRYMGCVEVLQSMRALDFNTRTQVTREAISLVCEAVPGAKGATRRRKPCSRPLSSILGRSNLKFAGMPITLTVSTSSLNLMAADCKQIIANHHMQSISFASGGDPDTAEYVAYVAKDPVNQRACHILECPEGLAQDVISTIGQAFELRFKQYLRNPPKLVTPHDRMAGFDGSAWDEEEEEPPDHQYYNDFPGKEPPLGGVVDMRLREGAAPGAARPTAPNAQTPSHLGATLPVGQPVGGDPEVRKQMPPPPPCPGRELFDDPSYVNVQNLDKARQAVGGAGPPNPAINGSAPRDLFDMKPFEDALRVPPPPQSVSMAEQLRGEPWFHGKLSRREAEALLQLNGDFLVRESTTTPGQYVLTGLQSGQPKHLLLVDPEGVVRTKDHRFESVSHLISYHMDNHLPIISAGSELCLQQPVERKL
# [5] = target: T3, Shc PTB domain (17 – 207); assay: ITC; Nano ITC; β3 phosphopeptide titrated into the Shc protein (30-150 μM); 25°C; 50 mM Tris, pH 7.5, 100 mM NaCl, 5 mM β-mercaptoethanol; independent model; details: both partners purified
# [6] = target: T4, full length Shc (1 – 473); assay: as above; details: both partners purified
# [7] = target: T3, Shc PTB domain (17 – 207); assay: ITC; Nano ITC; β3 phosphopeptide titrated into the Shc protein (30-150 μM); 12°C; 50 mM Tris, pH 7.5, 100 mM NaCl, 5 mM β-mercaptoethanol; independent model; details: both partners purified
# [8] = target: T4, full length Shc (1 – 473); assay: as above; details: both partners purified
# [9] = target: T3, Shc PTB domain (17 – 207); assay: ITC; Nano ITC; β3 phosphopeptide titrated into the Shc protein (30-150 μM); 25°C; 50 mM Tris, pH 7.5, 100 mM NaCl, 5 mM β-mercaptoethanol; independent model; details: both partners purified; remark: listed apart in the source
# [10] = target: T4, full length Shc (1 – 473); assay: as above; details: both partners purified; remark: listed apart in the source
molecule,measurement,setting,value
CC[C@H](C)[C@H](NC(=O)[C@H](CC(N)=O)NC(=O)[C@@H](NC(=O)[C@H](Cc1ccccc1)NC(=O)[C@@H](NC(=O)[C@H](CO)NC(=O)[C@@H](NC(=O)[C@H](C)NC(=O)[C@H](CCC(=O)O)NC(=O)[C@H](CCCCN)NC(=O)[C@H](Cc1ccc(OP(=O)(O)O)cc1)NC(=O)[C@H](CC(C)C)NC(=O)[C@@H]1CCCN1C(=O)[C@H](CC(N)=O)NC(=O)[C@H](CC(N)=O)NC(=O)[C@H](C)NC(=O)[C@@H](NC(=O)[C@H](CC(=O)O)NC(=O)[C@H](Cc1c[nH]c2ccccc12)NC(=O)[C@H](CCCCN)NC(=O)[C@H](C)NC(=O)[C@@H](N)CCCNC(=N)N)[C@@H](C)O)[C@@H](C)O)[C@@H](C)O)[C@@H](C)O)C(=O)N[C@H](C(=O)N[C@@H](Cc1ccc(OP(=O)(O)O)cc1)C(=O)N[C@@H](CCCNC(=N)N)C(=O)NCC(=O)N[C@H](C(=O)O)[C@@H](C)O)[C@@H](C)O [bi-β3] (H-RAKWDTANNPL[pY]KEATSTFTNIT[pY]RGT-OH),"change in Kd caused by Ins(1,4,5)P3",[1],slight reduction of Kd value
Phosphatidylinositol-5-phosphate [PtdIns(5)P1],Kd,"[2]; 50 mM Tris pH 7.5, 100 mM NaCl, 5 mM β-mercaptoethanol, ""independent"" model, dihexanoyl- or dioctonoyl- PtdIns",not able to detect the binding; also recorded: does not show to bind; also recorded: No binding
same,ΔG,[2]; pH 7.5,No binding
same,ΔH,[2]; pH 7.5,No binding
same,−TΔS,[2]; pH 7.5,No binding
B1,Kd,[3],1120 nM
same,dH,[3],-23.6 kJ/mol
same,Kd,[4],870 nM
same,dH,[4],-21.1 kJ/mol
same,Kd,[5],340 nM
same,stoichiometry N,[5],1 ± 0.15
same,stoichiometry N,[6],1 ± 0.15
same,Kd,[7],1050 nM
same,dH,[7],-24.2 kJ/mol
same,Kd,[8],820 nM
same,dH,[8],-21 kJ/mol
same,Kd,[9],350 nM
same,dH,[9],-25.4 kJ/mol
same,Kd,[10],1330 nM
same,dH,[10],-7.4 kJ/mol

# Source: PMC4397963, “Phospho-Tyrosine(s) vs. Phosphatidylinositol Binding in Shc Mediated Integrin Signaling” (American journal of molecular biology, 2015)
